Reference: patent US20240043515A1 (Chugai, published 2024)

T1: human FcγRIIa R extracellular domain (human, UniProt P12318 34-217)
T1 construct: extracellular domain; also called hFcγR IIa R; FcγRIIa allotype R131
T1 sequence (looked up): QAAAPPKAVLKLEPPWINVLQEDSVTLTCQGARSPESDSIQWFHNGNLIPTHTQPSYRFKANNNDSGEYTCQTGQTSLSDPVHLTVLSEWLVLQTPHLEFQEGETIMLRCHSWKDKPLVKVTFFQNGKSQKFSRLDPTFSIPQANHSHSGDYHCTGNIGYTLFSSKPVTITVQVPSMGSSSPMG

T2: human FcγRIIa H extracellular domain (human, UniProt P12318 34-217)
T2 construct: extracellular domain; also called hFcγR IIa H; FcγRIIa allotype H131
T2 sequence (looked up): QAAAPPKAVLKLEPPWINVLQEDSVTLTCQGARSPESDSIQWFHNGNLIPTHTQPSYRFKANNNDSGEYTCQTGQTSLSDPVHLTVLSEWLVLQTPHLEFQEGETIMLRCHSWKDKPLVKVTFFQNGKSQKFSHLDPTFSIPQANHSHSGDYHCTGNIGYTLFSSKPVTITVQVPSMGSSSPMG

T3: human FcγRIIb extracellular domain (human, UniProt P31994 43-217)
T3 construct: extracellular domain; also called hFcγR IIb
T3 sequence (looked up): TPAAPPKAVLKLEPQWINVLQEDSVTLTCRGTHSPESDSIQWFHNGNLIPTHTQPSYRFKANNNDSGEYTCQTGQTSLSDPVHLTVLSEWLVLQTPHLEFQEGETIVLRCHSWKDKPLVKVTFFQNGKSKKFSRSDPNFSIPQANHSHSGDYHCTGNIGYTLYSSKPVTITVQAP

T4: hFcγRIIaH on Jurkat effector cells (human, UniProt P12318 34-317)
T4 sequence (looked up): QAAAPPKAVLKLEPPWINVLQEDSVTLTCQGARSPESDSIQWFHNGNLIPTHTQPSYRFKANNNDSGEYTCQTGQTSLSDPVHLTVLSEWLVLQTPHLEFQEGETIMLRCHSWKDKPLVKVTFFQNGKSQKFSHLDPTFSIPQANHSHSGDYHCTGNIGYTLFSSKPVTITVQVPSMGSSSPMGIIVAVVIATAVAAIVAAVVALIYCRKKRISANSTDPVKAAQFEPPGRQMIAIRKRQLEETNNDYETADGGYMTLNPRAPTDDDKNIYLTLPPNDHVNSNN


What was measured:
[1] = target: T1, human FcγRIIa R extracellular domain; experiment: SPR; KD of G1d divided by KD of this antibody
Experimental: (§1) The extracellular domains of FcγRs were produced by the method described in WO2014104165. The interaction between the produced antibodies and human FcγRs was analyzed using Biacore 8K+ by the method below. For the running buffer, 50 mM Na-Phosphate, 150 mM NaCl, and 0.05% Tween20 (pH 7.4) was used, and measurement was performed at 25° C. The sensor chip used was a Series S SA chip (GE Healthcare) onto which CaptureSelect Human Fab-kappa Kinetics Biotin Conjugate (Thermo Fisher Scientific) was immobilized. An antibody of interest was captured onto this chip, and each FcγR diluted with the running buffer was allowed to interact with it. The chip was regenerated using 10 mM Glycine-HCl (pH 1.5), and repeatedly used to capture antibodies and perform measurement. The dissociation constants KD (mol/L) of each antibody for FcγRs were calculated using Biacore Insight Evaluation Software, with a steady state affinity model for the dissociation constant for FcγRIIb and a 1:1 Langmuir binding model for the dissociation constants for the other FcγRs (Table 2).

[2] = target: T2, human FcγRIIa H extracellular domain; experiment: SPR; KD of G1d divided by KD of this antibody
Experimental: as §1

[3] = target: T3, human FcγRIIb extracellular domain; experiment: SPR; KD of G1d divided by KD of this antibody
Experimental: as §1

[4] = target: T5, human FcγRIa extracellular domain (human, UniProt P12314 16-292); experiment: SPR; KD of G1d divided by KD of this antibody
T5 construct: extracellular domain; also called hFcγR Ia
Experimental: as §1

[5] = target: T6, human FcγRIIIa F extracellular domain (human, UniProt P08637 17-208); experiment: SPR; KD of G1d divided by KD of this antibody
T6 construct: extracellular domain; also called hFcγR IIIa F; FcγRIIIa allotype F158
Experimental: as §1

[6] = target: hFcγRIIIaV on Jurkat effector cells (human, UniProt P08637 17-254); experiment: cell-based or functional assay
[7] = target: T1, human FcγRIIa R extracellular domain; experiment: SPR; KD for hFcγRIIb divided by KD for this FcγR
Experimental: as §1

[8] = target: T2, human FcγRIIa H extracellular domain; experiment: SPR; KD for hFcγRIIb divided by KD for this FcγR
Experimental: as §1

[9] = target: T6, human FcγRIIIa F extracellular domain; experiment: SPR; KD for hFcγRIIb divided by KD for this FcγR
Experimental: as §1

[10] = target: T7, human FcγRIIIa V extracellular domain (human, UniProt P08637 17-208); experiment: SPR; KD of G1d divided by KD of this antibody
T7 construct: extracellular domain; also called hFcγR IIIa V; FcγRIIIa allotype V158
Experimental: as §1

[11] = target: T7, human FcγRIIIa V extracellular domain; experiment: SPR; KD for hFcγRIIb divided by KD for this FcγR
Experimental: as §1

[12] = target: T4, hFcγRIIaH on Jurkat effector cells; experiment: cell-based or functional assay

hFcγRIIIaV on Jurkat effector cells, sequence (P08637 17-254, form in doubt): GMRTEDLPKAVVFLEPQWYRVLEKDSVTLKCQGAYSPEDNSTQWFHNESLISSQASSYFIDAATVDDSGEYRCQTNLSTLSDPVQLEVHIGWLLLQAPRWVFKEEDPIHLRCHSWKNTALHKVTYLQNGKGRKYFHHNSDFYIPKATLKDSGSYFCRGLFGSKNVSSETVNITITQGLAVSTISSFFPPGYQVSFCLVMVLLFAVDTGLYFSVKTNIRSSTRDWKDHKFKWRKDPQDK
T6 sequence (P08637 17-208): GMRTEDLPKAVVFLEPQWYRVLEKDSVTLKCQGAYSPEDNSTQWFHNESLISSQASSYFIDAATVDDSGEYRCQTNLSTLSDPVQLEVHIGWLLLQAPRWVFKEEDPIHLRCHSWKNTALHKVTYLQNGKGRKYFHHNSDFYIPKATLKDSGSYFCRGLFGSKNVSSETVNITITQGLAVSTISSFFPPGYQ
T5 sequence (P12314 16-292): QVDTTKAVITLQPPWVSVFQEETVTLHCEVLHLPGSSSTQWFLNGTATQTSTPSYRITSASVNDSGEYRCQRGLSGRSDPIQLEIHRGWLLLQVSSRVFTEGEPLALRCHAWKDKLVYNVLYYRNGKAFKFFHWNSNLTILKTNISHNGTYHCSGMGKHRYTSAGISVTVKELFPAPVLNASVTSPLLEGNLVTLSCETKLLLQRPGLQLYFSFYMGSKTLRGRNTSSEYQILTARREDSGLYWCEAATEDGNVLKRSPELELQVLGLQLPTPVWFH
T7 sequence (P08637 17-208 F176V): as the sequence (P08637 17-208) above, with F160V counted along it

Relative value to KD between G1d and hFcgRs [1] [times]	Relative value to KD between G1d and hFcgRs [2] [times]	Relative value to KD between G1d and hFcgRs [3] [times]	Relative value to KD between G1d and hFcgRs [4] [times]	Relative value to KD between G1d and hFcgRs [5] [times]	EC50 of reporter gene induction (ADCC Reporter Bioassay, Hepa1-6/hEREG target cells) [6] [µg/mL]	A/I ratio (KD for FcγRIIb divided by KD for each FcγR) [7] [ratio]	A/I ratio (KD for FcγRIIb divided by KD for each FcγR) [8] [ratio]	A/I ratio (KD for FcγRIIb divided by KD for each FcγR) [9] [ratio]	Relative value to KD between G1d and hFcgRs [10] [times]	A/I ratio (KD for FcγRIIb divided by KD for each FcγR) [11] [ratio]	EC50 of reporter gene induction (ADCP Reporter Bioassay, Hepa1-6/hEREG target cells) [12] [µg/mL]	Binder
1	1	1	1	1	0.0463	6.1	8.9	3.4				EGL-G1d (H240-G1d/L73-k0) (antibody, human IgG1, kappa, Anti-human Epiregulin antibody with a human IgG1 constant region lacking C-terminal Gly-Lys (G1d); also called Gld; anti-hEREG control antibody) heavy: not shown light: DIQMTQSPSSLSASVGDRVTITCRASQDIHKYIAWYQQKPGQAPRLLIQYTSTLQPGVPSRFSGSGSGTDYTFTISSLQPEDIATYYCLQYEQLRTFGGGTKVEIKRTVAAPSVFIFPPSDEQLKSGTASVVCLLNNFYPREAKVQWKVDNALQSGNSQESVTEQDSKDSTYSLSSTLTLSKADYEKHKVYACEVTHQGLSSPVTKSFNRGEC
1.8	1	3.9	54.3	113	0.00178	2.8	2.2	98.7	36.8	266		EGL-SDALIE (H240-Kn032/L73-k0//H240-H1032/L73-k0) (antibody, human IgG1, kappa, S239D/A330L/I332E in both heavy chains; Kn032 with Y349C/T366W, H1032 with D356C/T366S/L368A/Y407V) heavy 1: QDQLVQSGAEVKKPGASVKVSCKASGFNIKDTYIQWVRQAPGQGLEWMGRIDPLRKQTKYREKFEGRVTITADTSTNTAYMELSSLRSEDTAVYYCVRSGREFDYWGQGTLVTVSSASTKGPSVFPLAPSSKSTSGGTAALGCLVKDYFPEPVTVSWNSGALTSGVHTFPAVLQSSGLYSLSSVVTVPSSSLGTQTYICNVNHKPSNTKVDKKVEPKSCDKTHTCPPCPAPELLGGPDVFLFPPKPKDTLMISRTPEVTCVVVDVSHEDPEVKFNWYVDGVEVHNAKTKPREEQYNSTYRVVSVLTVLHQDWLNGKEYKCKVSNKALPLPEEKTISKAKGQPREPQVCTLPPSRDELTKNQVSLWCLVKGFYPSDIAVEWESNGQPENNYKTTPPVLDSDGSFFLYSKLTVDKSRWQQGNVFSCSVMHEALHNHYTQKSLSLSP heavy 2: QDQLVQSGAEVKKPGASVKVSCKASGFNIKDTYIQWVRQAPGQGLEWMGRIDPLRKQTKYREKFEGRVTITADTSTNTAYMELSSLRSEDTAVYYCVRSGREFDYWGQGTLVTVSSASTKGPSVFPLAPSSKSTSGGTAALGCLVKDYFPEPVTVSWNSGALTSGVHTFPAVLQSSGLYSLSSVVTVPSSSLGTQTYICNVNHKPSNTKVDKKVEPKSCDKTHTCPPCPAPELLGGPDVFLFPPKPKDTLMISRTPEVTCVVVDVSHEDPEVKFNWYVDGVEVHNAKTKPREEQYNSTYRVVSVLTVLHQDWLNGKEYKCKVSNKALPLPEEKTISKAKGQPREPQVYTLPPSRCELTKNQVSLSCAVKGFYPSDIAVEWESNGQPENNYKTTPPVLDSDGSFFLVSKLTVDKSRWQQGNVFSCSVMHEALHNHYTQKSLSLSP light: DIQMTQSPSSLSASVGDRVTITCRASQDIHKYIAWYQQKPGQAPRLLIQYTSTLQPGVPSRFSGSGSGTDYTFTISSLQPEDIATYYCLQYEQLRTFGGGTKVEIKRTVAAPSVFIFPPSDEQLKSGTASVVCLLNNFYPREAKVQWKVDNALQSGNSQESVTEQDSKDSTYSLSSTLTLSKADYEKHKVYACEVTHQGLSSPVTKSFNRGEC
10.3	6.9	3.8	21.3	99.1	0.00208	16.5	16.5	89.3			0.0324	EGL-GASDALIE (H240-GASDALIE/L73-k0) (antibody, human IgG1, kappa) heavy: QDQLVQSGAEVKKPGASVKVSCKASGFNIKDTYIQWVRQAPGQGLEWMGRIDPLRKQTKYREKFEGRVTITADTSTNTAYMELSSLRSEDTAVYYCVRSGREFDYWGQGTLVTVSSASTKGPSVFPLAPSSKSTSGGTAALGCLVKDYFPEPVTVSWNSGALTSGVHTFPAVLQSSGLYSLSSVVTVPSSSLGTQTYICNVNHKPSNTKVDKKVEPKSCDKTHTCPPCPAPELLAGPDVFLFPPKPKDTLMISRTPEVTCVVVDVSHEDPEVKFNWYVDGVEVHNAKTKPREEQYNSTYRVVSVLTVLHQDWLNGKEYKCKVSNKALPLPEEKTISKAKGQPREPQVYTLPPSRDELTKNQVSLTCLVKGFYPSDIAVEWESNGQPENNYKTTPPVLDSDGSFFLYSKLTVDKSRWQQGNVFSCSVMHEALHNHYTQKSLSLSP light: DIQMTQSPSSLSASVGDRVTITCRASQDIHKYIAWYQQKPGQAPRLLIQYTSTLQPGVPSRFSGSGSGTDYTFTISSLQPEDIATYYCLQYEQLRTFGGGTKVEIKRTVAAPSVFIFPPSDEQLKSGTASVVCLLNNFYPREAKVQWKVDNALQSGNSQESVTEQDSKDSTYSLSSTLTLSKADYEKHKVYACEVTHQGLSSPVTKSFNRGEC
